Results reported in patent US20130115627A1 (AGENCY FOR SCIENCE TECHNOLOGY AND RESEARCH, published 2013).

Biological target: T1, PODXL on the surface of hESCs (human, UniProt O00592 23-558, glycosylated (sites not given))
T1 construct: also called human embryonic stem cells
T1 sequence: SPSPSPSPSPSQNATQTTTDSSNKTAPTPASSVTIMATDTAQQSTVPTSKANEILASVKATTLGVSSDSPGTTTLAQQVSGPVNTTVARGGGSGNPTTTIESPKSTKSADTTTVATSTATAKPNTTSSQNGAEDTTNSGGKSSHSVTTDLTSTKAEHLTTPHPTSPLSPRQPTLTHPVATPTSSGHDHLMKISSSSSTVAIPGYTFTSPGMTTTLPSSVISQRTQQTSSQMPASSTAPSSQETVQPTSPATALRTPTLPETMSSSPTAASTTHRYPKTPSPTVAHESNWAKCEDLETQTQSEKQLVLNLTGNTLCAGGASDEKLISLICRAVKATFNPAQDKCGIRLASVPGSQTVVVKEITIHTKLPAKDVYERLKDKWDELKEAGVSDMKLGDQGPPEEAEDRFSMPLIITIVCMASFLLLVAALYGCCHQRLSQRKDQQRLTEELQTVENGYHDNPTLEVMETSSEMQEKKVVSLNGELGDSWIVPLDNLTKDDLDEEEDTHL
Experiment: kinetics of binding to PODXL on the surface of hESCs; method not stated

B1: mAb 84 (antibody, V domains shown)
VH: QVQLQQSGGGLVQPGGSMKLSCVASGFTFSNYWMNWVRQSPEKGLEWVAEIRLKSNNYATHYAESVKGRFTISRDDSKSSVYLQMNNLRAEDTGIYYCTGERAWGQGTTVTVSS
VL: DIELTQSPAIMSASPGEKVTMTCSASSSVNYMYWYQQKPGSSPRLLIYDTSNLASGVPVRFSGSGSGTSYSLTISRMEAEDAATYYCQQWSSYPYTFGGGTKLEIKR
In the case of B1, the Kd is reported as 40 nM, the koff is reported as 0.0029 s⁻¹ and the kon is reported as 71000 M⁻¹ s⁻¹.
